Earlier results, collected in patent US5608039A, “Single chain B3 antibody fusion proteins and their uses” (The United States of America as represented by the …, priority 1994, dated 1997).

Conditions: in vivo

For PE, the toxicity is given as “highly toxic compounds that typically bring about death through liver toxicity”.
